Reference: patent publication US20230340146A1 (US Dept. of Health and Human Services, published 2023)

Experiments:
[1] = biological target: T1, human GPC1 on cells (T3M4, KLM1, H8, 2B9) (human) (UniProt P35052); assay: flow cytometry on T3M4 pancreatic cancer cells, non-specific control IgG, goat anti-mouse IgG-PE
T1 sequence (looked up): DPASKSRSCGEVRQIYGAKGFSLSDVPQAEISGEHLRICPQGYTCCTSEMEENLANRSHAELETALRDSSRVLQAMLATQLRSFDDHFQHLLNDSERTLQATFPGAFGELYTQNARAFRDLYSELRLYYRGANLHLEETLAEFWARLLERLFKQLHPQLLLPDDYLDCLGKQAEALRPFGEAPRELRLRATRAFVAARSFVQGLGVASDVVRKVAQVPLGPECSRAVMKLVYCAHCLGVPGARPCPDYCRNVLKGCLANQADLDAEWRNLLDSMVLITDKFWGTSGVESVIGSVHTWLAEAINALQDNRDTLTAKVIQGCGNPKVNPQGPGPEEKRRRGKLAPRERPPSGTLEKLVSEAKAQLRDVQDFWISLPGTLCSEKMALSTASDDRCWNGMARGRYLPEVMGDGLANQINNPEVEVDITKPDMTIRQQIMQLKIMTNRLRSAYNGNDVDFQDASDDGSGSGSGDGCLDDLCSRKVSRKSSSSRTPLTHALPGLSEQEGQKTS

[2] = biological target: T2, human glypican-4 (GPC4) (human, UniProt O75487 19-529, limits assumed); assay: ELISA on human GPC4, anti-FLAG detection
T2 construct: Named through 'human GPC1 through GPC6' in the methods; also called human GPC4; other human glypican members
T2 sequence (looked up): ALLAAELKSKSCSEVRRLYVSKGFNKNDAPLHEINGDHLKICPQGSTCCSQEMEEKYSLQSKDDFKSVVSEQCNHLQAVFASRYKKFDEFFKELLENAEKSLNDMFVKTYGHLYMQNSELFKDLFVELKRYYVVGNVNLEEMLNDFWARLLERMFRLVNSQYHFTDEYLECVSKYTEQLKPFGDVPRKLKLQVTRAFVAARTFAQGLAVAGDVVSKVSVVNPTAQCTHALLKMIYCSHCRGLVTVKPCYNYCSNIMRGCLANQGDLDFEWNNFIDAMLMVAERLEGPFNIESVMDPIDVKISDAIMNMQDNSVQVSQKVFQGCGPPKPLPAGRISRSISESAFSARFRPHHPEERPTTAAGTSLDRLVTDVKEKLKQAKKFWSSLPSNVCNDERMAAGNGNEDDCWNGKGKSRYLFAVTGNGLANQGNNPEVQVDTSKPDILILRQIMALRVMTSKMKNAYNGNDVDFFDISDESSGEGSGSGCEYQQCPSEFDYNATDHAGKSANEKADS
Protocol: (§1) Mouse hybridoma supernatant containing 1 µg/ml of each mAb was incubated with plates coated with human GPC1 through GPC6 purchased from R&D Systems. Binding was detected with a goat anti-mouse IgG conjugated with horseradish peroxidase (HRP) (Jackson ImmunoResearch). […] Binding was detected with an anti-FLAG HRP-conjugated antibody (Sigma-Aldrich). […] Recombinant human GPC1-hFc protein at concentrations of 5 µg/ml and 1 µg/ml were then added to the plate.

[3] = biological target: T3, GPC1 peptide 14; assay: ELISA on peptides of the GPC1 peptide library
T3 peptide: FRDLYSELRLYYRGANLH

[4] = biological target: T4, GPC1 peptide 15; assay: ELISA on peptides of the GPC1 peptide library
T4 peptide: LYYRGANLHLEETLAEFW

[5] = biological target: T5, human glypican-2 (GPC2) (human, UniProt Q8N158 24-554, limits assumed); assay: monoclonal phage ELISA on plate-coated glypicans
T5 construct: Named through 'human GPC1 through GPC6' in the methods; also called human GPC2; other human glypican members
T5 sequence (looked up): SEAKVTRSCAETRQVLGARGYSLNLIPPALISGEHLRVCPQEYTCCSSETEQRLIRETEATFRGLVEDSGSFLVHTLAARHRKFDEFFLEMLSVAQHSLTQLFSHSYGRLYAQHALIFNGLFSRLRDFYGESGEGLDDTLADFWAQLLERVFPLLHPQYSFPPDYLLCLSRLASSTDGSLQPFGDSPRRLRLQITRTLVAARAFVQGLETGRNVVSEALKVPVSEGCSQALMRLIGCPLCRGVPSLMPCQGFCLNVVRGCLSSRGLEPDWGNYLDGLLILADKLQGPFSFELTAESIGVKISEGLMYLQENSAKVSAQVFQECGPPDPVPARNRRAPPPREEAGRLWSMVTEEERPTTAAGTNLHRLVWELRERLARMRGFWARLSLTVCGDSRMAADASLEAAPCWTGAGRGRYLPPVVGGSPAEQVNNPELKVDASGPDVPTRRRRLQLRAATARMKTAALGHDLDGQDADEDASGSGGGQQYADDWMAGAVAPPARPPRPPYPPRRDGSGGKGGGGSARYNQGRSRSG

[6] = biological target: T6, human glypican-3 (GPC3) (human, UniProt P51654 25-559, limits assumed); assay: monoclonal phage ELISA on plate-coated glypicans
T6 construct: Named through 'human GPC1 through GPC6' in the methods; also called human GPC3; other human glypican members

[7] = biological target: T7, human glypican-5 (GPC5) (human, UniProt P78333 25-551, limits assumed); assay: monoclonal phage ELISA on plate-coated glypicans
T7 construct: Named through 'human GPC1 through GPC6' in the methods; also called human GPC5; other human glypican members
T7 sequence (looked up): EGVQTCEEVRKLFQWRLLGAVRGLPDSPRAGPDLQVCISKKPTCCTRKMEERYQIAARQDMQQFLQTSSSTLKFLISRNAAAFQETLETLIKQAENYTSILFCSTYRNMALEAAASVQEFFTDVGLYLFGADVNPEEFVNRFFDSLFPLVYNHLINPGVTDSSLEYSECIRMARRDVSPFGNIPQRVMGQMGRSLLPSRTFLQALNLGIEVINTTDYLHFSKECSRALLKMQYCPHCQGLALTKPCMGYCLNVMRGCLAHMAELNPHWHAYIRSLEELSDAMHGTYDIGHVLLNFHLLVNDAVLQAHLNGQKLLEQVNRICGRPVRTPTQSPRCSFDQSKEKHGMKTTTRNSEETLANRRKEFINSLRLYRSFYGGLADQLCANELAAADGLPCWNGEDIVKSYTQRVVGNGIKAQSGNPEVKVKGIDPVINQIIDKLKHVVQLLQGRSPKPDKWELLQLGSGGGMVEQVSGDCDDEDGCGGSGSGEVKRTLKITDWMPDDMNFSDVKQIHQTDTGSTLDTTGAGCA

[8] = biological target: T8, human glypican-6 (GPC6) (human, UniProt Q9Y625 24-529, limits assumed); assay: monoclonal phage ELISA on plate-coated glypicans
T8 construct: Named through 'human GPC1 through GPC6' in the methods; also called human GPC6; other human glypican members
T8 sequence (looked up): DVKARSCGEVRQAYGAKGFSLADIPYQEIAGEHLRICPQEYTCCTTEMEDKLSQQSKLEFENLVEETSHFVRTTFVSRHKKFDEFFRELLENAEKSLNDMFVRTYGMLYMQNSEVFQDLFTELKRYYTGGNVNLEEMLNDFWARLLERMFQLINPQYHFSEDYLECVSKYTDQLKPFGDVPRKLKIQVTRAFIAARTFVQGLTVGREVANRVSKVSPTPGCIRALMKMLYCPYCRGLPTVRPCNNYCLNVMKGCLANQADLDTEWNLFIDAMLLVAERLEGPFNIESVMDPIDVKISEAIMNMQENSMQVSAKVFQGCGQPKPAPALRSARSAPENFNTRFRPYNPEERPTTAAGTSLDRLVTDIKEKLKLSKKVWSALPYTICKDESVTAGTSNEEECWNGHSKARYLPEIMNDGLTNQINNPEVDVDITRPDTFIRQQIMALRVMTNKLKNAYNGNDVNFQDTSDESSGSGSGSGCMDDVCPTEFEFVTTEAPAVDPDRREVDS

[9] = biological target: T9, mouse GPC1 protein (mouse, UniProt Q9QZF2 24-529, limits assumed); assay: monoclonal phage ELISA on plate-coated mouse GPC1
T9 sequence (looked up): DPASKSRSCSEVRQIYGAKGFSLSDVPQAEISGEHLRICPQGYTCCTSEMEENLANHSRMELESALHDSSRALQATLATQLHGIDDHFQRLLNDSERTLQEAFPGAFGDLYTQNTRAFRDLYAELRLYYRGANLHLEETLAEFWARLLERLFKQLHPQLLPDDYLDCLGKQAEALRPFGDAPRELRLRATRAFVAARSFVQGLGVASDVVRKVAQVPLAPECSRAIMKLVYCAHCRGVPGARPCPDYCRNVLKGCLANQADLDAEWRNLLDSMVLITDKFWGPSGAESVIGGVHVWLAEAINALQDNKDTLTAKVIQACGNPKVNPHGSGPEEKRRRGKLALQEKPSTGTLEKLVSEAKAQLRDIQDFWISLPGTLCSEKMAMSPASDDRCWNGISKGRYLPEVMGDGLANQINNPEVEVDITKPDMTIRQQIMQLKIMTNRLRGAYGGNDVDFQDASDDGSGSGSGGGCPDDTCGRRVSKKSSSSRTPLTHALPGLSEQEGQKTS

[10] = biological target: T10, recombinant human GPC1-hFc protein (human, UniProt P35052 24-530, limits assumed); assay: Octet (BLI), His-tagged D4 on Ni-NTA biosensor, serially diluted human GPC1-hFc in solution
T10 construct: Analyte in the Octet measurement of D4; not shown: human Fc (hFc)
T10 sequence (looked up): T1 sequence (looked up)
Protocol: (§2) Data analysis was performed using the FortéBio analysis software.

[11] = biological target: T2, human glypican-4 (GPC4); assay: ELISA, plate coated with human GPC4
Protocol: as §1

[12] = biological target: T11, GPC1 peptide 53; assay: ELISA on peptides of the GPC1 peptide library
T11 peptide: DGCLDDLCSRKVSRKSSS

[13] = biological target: T12, His-tagged GPC1 protein (human, UniProt P35052 24-530, limits assumed); assay: Octet (BLI), His-tagged GPC1 on Ni-NTA biosensor, HM2 in solution
T12 construct: Immobilised on a Ni-NTA biosensor for the Octet measurement of HM2; also called human GPC1; not shown: His tag
T12 sequence (looked up): T1 sequence (looked up)
Protocol: as §2

[14] = biological target: T5, human glypican-2 (GPC2); assay: ELISA on plate-coated human glypicans, goat anti-mouse IgG-HRP
[15] = biological target: T6, human glypican-3 (GPC3); assay: as above
[16] = biological target: T7, human glypican-5 (GPC5); assay: as above
[17] = biological target: T8, human glypican-6 (GPC6); assay: as above
[18] = biological target: T1, human GPC1 on cells (T3M4, KLM1, H8, 2B9) (human); assay: cell-based or functional assay

Neg ctrl (antibody)
MFI [1]: 7

B1: D4 camel single-domain antibody (VHH)
VHH: QVQLVESGGGLVQPGGSLRLSCVASGYSYSIGYMAWFRQAPGKERAWVASRYTGDGGAVFDDAVKGRFTTSQESAGNTFDLQMDSLKPEDTAMYYCAAKGPGFGRWEYWGRGTQVTVSS
notes: the methods describe D4 at 1 ug/ml detected with anti-FLAG; also called D4 antibody; D4 clone; not shown: FLAG and His tags (detected with anti-FLAG; 'His-tagged D4')
binding result [2]: no binding (tested: 1 µg/ml)
binding result [3]: binds
binding result [4]: binds
binding result [5]: no binding (tested: 1 µg/ml (per paragraph 203; not on the sheet))
binding result [6]: no binding (tested: 1 µg/ml (per paragraph 203; not on the sheet))
binding result [7]: no binding (tested: 1 µg/ml (per paragraph 203; not on the sheet))
binding result [8]: no binding (tested: 1 µg/ml (per paragraph 203; not on the sheet))
binding result [9]: binds
Kd [10]: 0.7 nM

B2: HM2 mouse monoclonal antibody (antibody, V domains shown)
VH: EVQLQQSGAELVRPGASVKLSCTASGFNIKDDYMHWVKQRPEQGLEWIGWIDPENGDTEYASKFQGKATITADTSSNTAYLQLSSLTSEDTAVYYCTRSSVGYWGQGTTLTVSS
VL: DVVMTQTPLSLPVSLGDQASISCRSSQSLVHSNGNTYLHWYLQKPGQSPKLLIYKVSNRFSGVPDRFSGSGSGTYFTLKISRVEAEDLGVYFCSQRTHVPYTFGGGTKLEIK
notes: Mouse monoclonal antibody (detected with goat anti-mouse IgG); also called HM2 mAb; HM2 clone
binding result [11]: no binding (tested: 1 µg/ml)
binding result [12]: binds
Kd [13]: 0.4 nM
binding result [14]: no binding (tested: 1 µg/ml)
binding result [15]: no binding (tested: 1 µg/ml)
binding result [16]: no binding (tested: 1 µg/ml)
binding result [17]: no binding (tested: 1 µg/ml)

B3: D4-IgG4 hinge-CD28 TM CAR (protein)
chain: HMQVQLVESGGGLVQPGGSLRLSCVASGYSYSIGYMAWFRQAPGKERAWVASRYTGDGGAVFDDAVKGRFTTSQESAGNTFDLQMDSLKPEDTAMYYCAAKGPGFGRWEYWGRGTQVTVSSTSESKYGPPCPPCPFWVLVVVGGVLACYSLLVTVAFIIFWVKRGRKKLLYIFKQPFMRPVQTTQEEDGCSCRFPEEEEGGCELRVKFSRSADAPAYQQGQNQLYNELNLGRREEYDVLDKRRGRDPEMGGKPRRKNPQEGLYNELQKDKMAEAYSEIGMKGERRRGKGHDGLYQGLSTATKDTYDALHMQALPPR
cytolytic activity against T3M4 cells, difference to D4-IgG4 hinge-CD8 TM CAR T cells [18]: 10%
killing ability at high E:T ratio [18]: 91.6%
